Experimental data as given in the domain aggregation screens of Martell et al. (2025).

Assay: soluble fraction after stress (log2 fold change); higher = more stays soluble; pooled small domains, quantitative proteomics
Details: stress: 75 degC
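Also: 20 min heating vs room temperature control held 20 min.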

Row | Sequence | soluble fraction (log2)
1 | HMKTKKYKGVYKDSKGKIYFQIELGVDPITGKRIQKKGRKNQQGLPFNSFKEAYEEILRLKHEFVNSTIN | -3.35
2 | HMKTKTAPPDSIPPAWLKESATLRPDLNQAQIKASAEVFLDHHRAKGTTLADWRPAWRNWIRRERA | 0.0178
3 | HMKTLDAFFDQARDAYKKLKKDGDIDNLKVLRNQLQTVRETQGDAVRKKSKEEYRRLVDIIDDIDGLLAAF | -0.123
4 | HMKTLSKEDIGFLSDEAVGEMRKAVANGEMLELRALIDQVGEKNPIVAEKLLTLVKQYDYENLNRVLE | 0.102
5 | HMKTPAPRETILSLFRQTPDGFVSGERISDELGVSRTAVWKHIRNLRQAGYQIEAIPSRGYQLQQS | -0.556
6 | HMKTQFGTIVKQLRERKGMDQKQLGEIVGVSDKTVSSWEINRTEPKMGIVQQLADYFGVSTDYLIKG | 0.306
7 | HMKTRQVTVRNGRIEIFDKRFSTERLVFTAANLPVLEREGEVFTAGIPDSRDFINLWARDGSFAGSVPRV | -1.96
8 | HMKTTSYAKLLRFLRTERDLSQITVAKQLGLSRASYLALEHGSRELSLSEAVKVTTLYGIRIDDLIVNH | -3.35
9 | HMKTTVEVSPIARPGAVASGSVKFGSGVTAEWMLDQYGRLGLDKPTGKPTEQDIKEFQIELQKAL | 0.0637
10 | HMKVDLSEEEKTILELLKKESPQELETIKAASTLSNKKWDKAIKGLRKHNLAKVNKTDDGLFVELE | 0.234
11 | HMKVDRLISIVLVLLDKNRISAQELADMFEVSLRTIYRDIDAIELAGIPIRSTSGVGGGFEIMPNY | -1.11
12 | HMKVKGVYQLDNGYWGYRFTMLVNGKTVSQRRVKDESGNPFKTEKKAEKARLVAMAEEQTKANK | -2.22
13 | HMKVMTNAELGRIIKEARIARRMTQSEVVGDFITRNMLSQIENGNAAPSMRTLQYLMDVLDIHINIE | -3.02
14 | HMKVNIGDQVYNQMKDQIMSGVWVPGEKIPSENQLMEVFGVSRGTVRQAIQKLSAVGLLETRRGEGSYVGQ | -0.136
15 | HMKVQLGMNTREVRGIMGKPFSEDTFVEGEKRVDVLHYKEAVRVKTQGFILTTSLRFENDSLTAI | -1.62
16 | HMKVRVFIERSNDGYSAYMPDDNNLPFGLTGDGKTAQEAMQDFLLARDEMKEFFIEEGKEFPEVEFDFS | -0.828
17 | HMKVSAEEQNILDALQAAGGYLPFHDKSNPEEIYEAFGISKKTFKMIIGSLYKQQKINLTQTGIQLII | 0.303
18 | HMKVSDPEAIKLIEQAQVKVIPFLDISEAADIQIALEELKNSEGTGQTDSAKVRLRNLLSPFSYL | 0.577
19 | HMKVSFEIEINGVTKSINSINEAKEAISELQDIMDNSTFGSEEFKNAATQIDKLQNKLVEALDK | 0.93
20 | HMKVSVDLSMFEDDQTADRNAAVAWVVDELGAGGVDRTILMQLQSTGWSAEQSRAILDLASAGR | -0.311
21 | HMKVTGSVQKKKGYYYIVVRLPTKNGTQYEQKQKWFNTKLKATPRNKTAAQVILAEKLTEYGGIV | -3.04
22 | HMKVWYAGINAQRVGPMTLGAMEQQIRYGRVLFSTLIWKSPMPQWVPAGDVPELRRLLDEHMLNQMP | -0.841
23 | HMKYFDRDLINYIQKTLAGKKIDFHEKIVPLIIELAGSDIRRVDEIIDMAEYSGKGMHVSEEMIRELAGDV | -0.715
24 | HMKYKTKRDMILALMKKEILSGELKPRTRLLISEVASRYEVSEIPVREAFQVLIQEDLVRSTGAGFEVT | -2.36

Row | Sequence | soluble fraction (log2)
25 | HMKYPVYLQLADLIERKINKNEYPLGSKIPSERELIDAFGISRMTVRKAIEVLIEKGLLTRQHGKGTYVSQ | -2.26
26 | HMKYSNDFDKVSYSLGLSIASNLISSGVKTLNAEAFNDGLATVFEGRMPEINPDEANKILQNFFEGLQKE | -0.278
27 | HMKYSQAMIAQIIKHFHLPNNTVVTGEDVDAILLRSVDGGDGIYGGDVVSIWKYYKKQNDIQEIVT | -0.764
28 | HMLAEEDRRRAERPGLDGNAVMVHLGIGPGRHVGEALAFLLEVRRSEGDLAVAELKSRIDAWWADR | -2.17
29 | HMLAERKERDKAELKELILDAAKKILLKNGQEGLSIRKIATTVEYSPATIYLYFKDKDEILHELMEMG | 0.123
30 | HMLAHSEFGARLRETRKRLGLSQSELGGDRYSGSYISHLESGRRAASAEVIEFLAGRLGVEVEELGM | -0.406
31 | HMLAIELDDKPGSLLRALEIFAKRNLNIEYMYAFTEKRGDKAVMIFKFSDIETAKKSLLEEGFN | -2.11
32 | HMLAKNDSGLNNHTFNAIRDALLEALADGPAEAKKLTENISFPSDKIITVIRFLADHDDRFSLEDGILSLT | -0.738
33 | HMLAKYEIIKQDIIQMIEEKKFKPGDKIYSEGELKKIYNVSSTTVVRALQDLVLSGYLIRKQGEGTYVRK | -3.2
34 | HMLASDYEEELSVLIKMSHKIAAGDDSLMDDFNDRVTMFESSYPINKATKDLTPVLERVNKFQT | -0.908
35 | HMLDDDAGMIQAILRKAPGHYLPLHDKSDPASIQAQLGISKAQFKRAVGTLMKQGLIRQVKGDGLYLTQ | -0.271
36 | HMLDDESLHFFYKKDGWEYWMKTTTENNYPIQLRKKIGDEKVQEYWNGDKEKKKIGASYFGV | -0.465
37 | HMLDFLVSKYESELLADLLWSLGVVAVEEREATGDLVTLRTSLGDDHSFTRELVQEKFPDVIVSTAL | -1.74
38 | HMLDIVVGSTGYALGEITDHSGTVRVNGDTWTARLVDAAGPVEDGDRVEVYAVEGTTLLVYPS | -0.619
39 | HMLDKEDNANAGKTLLERELSRAHLSDVEHRELAQRLHLASEQELYIKIGSGDLSIIQALNRAKEFKDT | -0.0269
40 | HMLDKRSHAKKVLDAIEAVILGRATNDQLAYTINGRSLQKTPLPDLLRLRSQYQAEYQRELRAERIRKG | -0.697
41 | HMLDLPVKTINGKQYYYYTVKKGDTVYSLITRFGITRSDLVESNPAAADVLKTGDTLYFAVDKFG | -1.19
42 | HMLDLYYDSEDKLLIDMGTGEVIRSFADDKRSLVFDAQAKILFDEDSGDIVYSSYFDKLITDKLASKS | -0.396
43 | HMLDPIQEGKKMLNSRLSGFGITPNTRLMNKLLAAYNISSREEFYGRIGAGIEDLSTLREVLLKGT | -0.973
44 | HMLDQSYYETANEIISRYPLEEKSLIPIIQDIQATYRYLPPDLLDYVAKKIGITETKAYSVASFYENFSF | -0.721
45 | HMLDRNKLNELDAYIESFEDKPSHLIMILHRAQGLFGYLPKELQIYVAEKTGVPAAKVYGVVTFYSFFTMK | -3.42
46 | HMLEDDTVNTAEGIKIGDSFAAVTKAYGTDYVAAGNTYAYSKDKMTLTFVMNNDKVSTISYSLLTS | 0.136
47 | HMLEDYFKEEEYTEVLKIPKEYIKGFQYYLIEDAEFVNALRAKNKTMTLFLAKKLASDYIEIIRREQ | -2.39
48 | HMLEIGRYNTLTVLRKVDFGYYLDGLDYGDILMPAKYAATELEAGDEVDVFIYLDSSEKLIATTETPIAQ | -4.06

Row | Sequence | soluble fraction (log2)
49 | HMLEIQENFQNILKRMELSLSPLERRVLALYLSGYERSEIPEKTGIPLKTFDNALHRVRNKMK | -2.36
50 | HMLEKDIGKAITILRKSYQLSISAFSMRTGYSRVHISEVESGKRKATDELISVIRNVFHLDSNWPF | -1.52
51 | HMLELDRTNLLGVFGSKSNPYALIMLSNGEMLKLSIGDQFLGWRVYAIDQTTVHVQNGKNQEILRIP | -1.36
52 | HMLELLSMEDIQRTRVGDLIATVRQVDRQHALVLDRDPETGKPAVRGIFSLSQISLRLGLNI | -2.17
53 | HMLEPGIAVLKTLMSQYRLGVADLPELGSKSNVSKLLNAVEGKKLTRQHIEALSKRFAVSPALF | -0.148
54 | HMLEPGQKVKSVVVDISGDLIYIDLGGKTEGVVELKEFYDEAGEYHVKPGDEIEVFFVSVQNGLKRFTT | -0.0603
55 | HMLEQISDPEVLSKLADEVLSQQEKMVMDYRKGKTAAFQGLMGQMMKKTKGKGNPAKIQEILAQKL | 0.401
56 | HMLEQLTPRELKVLQALAQGRQNKEIAAQLVISERTVKFHVSAILSKLNVGNRTEAVTVAAQRGLISL | -1.6
57 | HMLEQSYYEKTDEIIELHGAKASSLIPVMQDVQAEYRYLPGELLSYIADKLGIPLAKAYSVATFYENFS | -0.282
58 | HMLERKFGTSLEIKSLSKFLIENNYKKNAKYLNKLIQVLGTRSENRIIKTFFKQFPEIENIFRNQL | -0.612
59 | HMLETADDAKRFLGAIISEKKAENLLRVYPDIIERIVAGKPVDLSLVKGIKQKTFDKLRQKVISHYSMY | -0.0346
60 | HMLETHRRRQIILSLLRESGMLDVDEVAARLVVSPNTIRNDFNALAAEGLLRRIRGGATLAEP | -1.45
61 | HMLFKNASGTVVSRIQSQVDGQINIRTGSGNAPDYAFVAKPDGAVELYHNGTKQFETGSSGVLLP | -0.406
62 | HMLFQQPATMIGKIGVAMSDLRPSGKIKIDDEWYDGQSEGDYILKGQEIIVVQVMNAYLIVRL | 0.0841
63 | HMLFRGNGFNTLYDKQLRITQQGEFKDGRLWDGKYYRYSKAGELVRIEIYEQGRYAGNGVITDEDKA | -1.06
64 | HMLFSDSDLKSLLDKDISYVIEMYKAASKEQKRIISDMVAQKVMEKKYIDANILIQLGELTGINYMDL | -1.33
65 | HMLFSEKLKQAMQDLHLNQIQVVGLTGKSKGSISQYISGKQVPSEATQRDIAISLGLEENYFSKK | 0.701
66 | HMLFYSDLVRLISFAEATLGKNEFETWYMSHHQGMKYTEIAIALGISVRTVEDRIARTKNHFRKI | -0.68
67 | HMLGAGFDSDLTARENIFLNGALLGHSRAVMRGYYDDIVNFAELHDFMDVPVKNFSSGMTSRLAFSIATIG | 0.236
68 | HMLGARIAALRRQAGMNQGELAKKLGISPSTVGMYEQGRREPSAEMLVRLAEAFSVSTDFLLT | -1.1
69 | HMLGERIRRLRKEMGMSVTELARRVKTSPSYISEIEKGEKTPSLNLLVRIASELRTGIDYLTGL | -0.922
70 | HMLGIGANVQKIAQERKISLKELSRRAGIPYTTIYNMVKRDSSRVSPENLQKLADALGVEIGKLYG | -0.24
